In PMC10987413:

Target: GST-DCL3 F5 (UniProt Q9LXW7)
Assay: MST
Settings: MST: 50 mM Tris-HCl pH 7.4, 150 mM NaCl, 10 mM MgCl2, 0.01% Tween 20, 100 nM RED-NHS labelled protein, incubation 5 min at room temperature (instrument printed …)

UniProt Q9LXW7, sequence (Q9LXW7 whole entry): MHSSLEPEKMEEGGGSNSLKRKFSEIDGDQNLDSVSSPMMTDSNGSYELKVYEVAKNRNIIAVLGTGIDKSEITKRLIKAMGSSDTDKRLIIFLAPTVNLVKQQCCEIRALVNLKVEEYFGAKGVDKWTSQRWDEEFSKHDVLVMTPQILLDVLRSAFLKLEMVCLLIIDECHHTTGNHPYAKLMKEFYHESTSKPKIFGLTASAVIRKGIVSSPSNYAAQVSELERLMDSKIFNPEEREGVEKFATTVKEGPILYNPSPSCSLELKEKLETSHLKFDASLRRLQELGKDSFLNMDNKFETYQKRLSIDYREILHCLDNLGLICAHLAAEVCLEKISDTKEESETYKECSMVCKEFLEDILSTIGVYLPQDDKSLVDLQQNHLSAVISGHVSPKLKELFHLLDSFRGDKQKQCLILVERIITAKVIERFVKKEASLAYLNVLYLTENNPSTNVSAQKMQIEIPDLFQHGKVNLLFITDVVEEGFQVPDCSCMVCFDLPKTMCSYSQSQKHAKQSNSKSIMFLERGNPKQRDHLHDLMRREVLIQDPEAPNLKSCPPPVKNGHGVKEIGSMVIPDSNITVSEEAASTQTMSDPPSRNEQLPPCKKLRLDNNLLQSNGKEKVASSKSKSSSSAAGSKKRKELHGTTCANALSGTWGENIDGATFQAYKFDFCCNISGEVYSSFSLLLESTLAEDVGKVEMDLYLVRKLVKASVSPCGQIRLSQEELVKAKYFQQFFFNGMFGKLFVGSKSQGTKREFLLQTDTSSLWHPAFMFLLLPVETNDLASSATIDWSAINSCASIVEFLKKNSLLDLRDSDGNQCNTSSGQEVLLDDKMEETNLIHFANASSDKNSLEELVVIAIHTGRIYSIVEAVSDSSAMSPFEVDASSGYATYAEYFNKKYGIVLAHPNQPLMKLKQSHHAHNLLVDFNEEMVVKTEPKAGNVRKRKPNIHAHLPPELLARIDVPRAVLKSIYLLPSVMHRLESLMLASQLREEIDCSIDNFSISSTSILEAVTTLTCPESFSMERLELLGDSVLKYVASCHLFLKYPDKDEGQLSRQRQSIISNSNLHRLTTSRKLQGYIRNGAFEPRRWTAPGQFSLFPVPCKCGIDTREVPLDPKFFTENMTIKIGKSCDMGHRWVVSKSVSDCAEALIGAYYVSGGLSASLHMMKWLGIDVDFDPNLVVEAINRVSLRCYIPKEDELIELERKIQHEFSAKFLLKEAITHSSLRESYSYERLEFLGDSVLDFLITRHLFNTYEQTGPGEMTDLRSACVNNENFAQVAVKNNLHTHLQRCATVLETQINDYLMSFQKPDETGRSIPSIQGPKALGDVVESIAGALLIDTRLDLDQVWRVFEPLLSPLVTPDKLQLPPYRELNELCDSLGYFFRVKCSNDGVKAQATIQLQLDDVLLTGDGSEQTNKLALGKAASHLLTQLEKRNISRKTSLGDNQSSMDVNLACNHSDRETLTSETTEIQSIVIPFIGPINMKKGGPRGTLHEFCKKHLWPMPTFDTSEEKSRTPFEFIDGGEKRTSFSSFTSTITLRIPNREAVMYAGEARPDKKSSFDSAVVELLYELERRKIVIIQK

| Substance | Kd [nM] |
| --- | --- |
| 21-nt ss-sRNA | 1870 |
| 24-nt ss-sRNA | 1220 |
| 55-nt ss-sRNA | 1160 |
| AGAAUCUUGAUGAUGCUGCAU / GUGGCAUCAUCAAGAUUCACA [miR172a duplex] | 927 |
| UACAAGACACGUGCUGAAGUCAAGUUUGAGGGAACACCCUCGUCAACAGGAUCG / AUCCUGUUGACGAGGGUGUCUCCCUCAAACUUGACUUCAGCACGUGUCUUGUAGU [55-bp ds-sRNA] | 582 |
| UCAACAGGAUCGAGCUUAAGG / UUAAGCUCGAUCCUGUUGACG [21-bp ds-sRNA (ds siRGFP)] | 575 |
| UCGCUUGGUGCAGGUCGGGAA / CCCGCCUUGCAUCAACUGAAU [miR168a duplex] | 1060 |
| UGAAUUUCUGGUAUGGGUCCCGCC / CGGGACCCAUACCAGAAAUUCAUC [24-bp ds-sRNA (dsAtSN1)] | 553 |
